# From article PMC2834417
# Values joined by “and” are separate entries in the source; they are usually repeats but may differ in a detail not shown here. Equal entries are not always repeated.
# Biological target: Wild type Cav1.2 channel with EGFP fused to its C-terminus (rabbit) (UniProt P15381)
# Experiment: FRET or BRET
# Sequence of UniProt P15381 (P15381 whole entry, the tested form may be a part): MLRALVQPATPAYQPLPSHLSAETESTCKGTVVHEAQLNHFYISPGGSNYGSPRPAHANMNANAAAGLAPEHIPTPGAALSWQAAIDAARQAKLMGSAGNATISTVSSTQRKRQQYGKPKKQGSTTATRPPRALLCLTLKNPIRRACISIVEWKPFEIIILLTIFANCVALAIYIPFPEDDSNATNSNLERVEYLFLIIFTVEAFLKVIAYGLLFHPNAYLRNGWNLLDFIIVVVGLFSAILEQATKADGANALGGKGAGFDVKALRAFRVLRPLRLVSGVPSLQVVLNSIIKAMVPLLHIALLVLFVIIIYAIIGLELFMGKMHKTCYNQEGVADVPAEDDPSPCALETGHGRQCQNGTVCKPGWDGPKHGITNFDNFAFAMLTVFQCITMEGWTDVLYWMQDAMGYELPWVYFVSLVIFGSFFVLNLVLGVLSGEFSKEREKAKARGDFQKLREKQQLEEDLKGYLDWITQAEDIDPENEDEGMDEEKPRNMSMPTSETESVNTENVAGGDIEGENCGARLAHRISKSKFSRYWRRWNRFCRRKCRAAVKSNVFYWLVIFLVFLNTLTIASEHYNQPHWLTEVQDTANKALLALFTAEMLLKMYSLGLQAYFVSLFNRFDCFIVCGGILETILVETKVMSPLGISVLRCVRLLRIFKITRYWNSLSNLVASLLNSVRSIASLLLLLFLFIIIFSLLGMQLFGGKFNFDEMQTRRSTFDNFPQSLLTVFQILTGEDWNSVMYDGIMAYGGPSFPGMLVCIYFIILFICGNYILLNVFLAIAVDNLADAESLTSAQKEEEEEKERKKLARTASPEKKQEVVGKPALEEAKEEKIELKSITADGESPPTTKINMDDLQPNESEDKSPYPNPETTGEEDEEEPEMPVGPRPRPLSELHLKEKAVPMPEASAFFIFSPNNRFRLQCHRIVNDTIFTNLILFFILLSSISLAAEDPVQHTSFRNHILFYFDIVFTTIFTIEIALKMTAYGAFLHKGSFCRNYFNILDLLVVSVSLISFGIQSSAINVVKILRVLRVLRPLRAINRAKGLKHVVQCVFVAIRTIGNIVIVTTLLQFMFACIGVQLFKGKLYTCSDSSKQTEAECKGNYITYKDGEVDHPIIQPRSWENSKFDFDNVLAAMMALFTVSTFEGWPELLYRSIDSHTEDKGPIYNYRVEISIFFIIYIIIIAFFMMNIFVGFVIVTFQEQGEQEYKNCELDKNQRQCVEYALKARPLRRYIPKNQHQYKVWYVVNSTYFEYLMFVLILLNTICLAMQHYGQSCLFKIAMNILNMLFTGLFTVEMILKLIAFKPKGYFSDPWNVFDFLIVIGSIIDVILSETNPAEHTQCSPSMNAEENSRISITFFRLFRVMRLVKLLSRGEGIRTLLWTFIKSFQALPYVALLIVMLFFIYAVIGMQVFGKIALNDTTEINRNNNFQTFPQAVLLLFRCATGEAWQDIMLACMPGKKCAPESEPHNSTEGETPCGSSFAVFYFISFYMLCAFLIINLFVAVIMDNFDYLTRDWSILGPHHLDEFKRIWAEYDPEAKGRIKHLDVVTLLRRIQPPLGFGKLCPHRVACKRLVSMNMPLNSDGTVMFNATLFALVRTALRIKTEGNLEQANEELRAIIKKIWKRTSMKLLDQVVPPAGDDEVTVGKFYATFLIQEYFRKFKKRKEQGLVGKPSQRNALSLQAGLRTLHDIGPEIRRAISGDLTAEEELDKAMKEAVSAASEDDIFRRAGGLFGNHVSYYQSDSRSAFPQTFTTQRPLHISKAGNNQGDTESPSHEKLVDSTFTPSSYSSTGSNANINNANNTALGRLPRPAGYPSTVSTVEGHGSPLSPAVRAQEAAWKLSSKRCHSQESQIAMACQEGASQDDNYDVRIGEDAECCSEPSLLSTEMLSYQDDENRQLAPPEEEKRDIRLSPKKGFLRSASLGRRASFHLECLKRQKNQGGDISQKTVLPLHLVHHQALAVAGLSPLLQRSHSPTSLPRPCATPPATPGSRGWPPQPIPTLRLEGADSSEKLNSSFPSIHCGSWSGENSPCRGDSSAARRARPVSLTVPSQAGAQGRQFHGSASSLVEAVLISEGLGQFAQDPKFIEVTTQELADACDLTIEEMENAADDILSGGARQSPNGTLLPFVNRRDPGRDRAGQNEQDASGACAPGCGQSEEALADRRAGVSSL
substance,measurement,value
Calmodulin fused with tag-RFP (from UniProt P0DP23 1-149) (natural protein),FRET,0.32 and 0.21 and 0.33
